Measured values reported in patent publication US20220195070A1 (Chugai, published 2022).
Where a chain is given by its changes, count along the chain named.

B1: SKA0028 (antibody, V domains shown)
VH: QSVEESGGRLVTPGTPLTLTCTASGFTISSYHMSWVRQAPGKGLEWIGIIHGSGNMWYASWAKGRFTISRTSTTVDLEITSPTTEDTATYFCARIRFWASSNYYYFYLWGQGTLVTVSS
VL: ALVMTQTPASVSEPVGGTVTINCQASQNIYSNLAWYQQKPGQRPRLLIYGASNLESGVPSRFRGSGSGTEFTLTISDLECADAATYYCQSAYWGNNNDGAFGGGTEVVVKG
notes: Recombinant rabbit monoclonal from B-cell cloning, expressed in FreeStyle 293-F cells; the first screen used B-cell culture supernatant; also called Anti-SG115 Antibody; rabbit Anti Fc-Mutation Antibody
B2: SKA0027 (antibody, V domains shown)
VH: QEQLVESGGGLVQPEGSLTLTCTASGFSFSSSDYMCWVRQAPGKGLEWIGCIYTGSGSTYYASWAKGRFTISKTSSTTVTLQMTSLTAADTATFFCARRGDSYSNYSFKLWGPGTLVTVSS
VL: AFELTQTPASVEAAVGGTVTIKCQASQNIYSNLAWYQQKPGQPPKLLIYTASSLASGVSSRFKGSGSGTEFTLTISDLECDDAATYYCQCTYINNGYGNTFGGGTEVVVKG
notes: as for B1
B3: SKA0009 (antibody, V domains shown)
VH: QSVEESGGRLVTPGTSLTLTCTVSGIDLSSYGMGWVRQAPGMGLEYIGIIYAAGRTYYASWVKGRFIISKTSTTVDLEMTSLTTEDTATYFCARHGSWYAGMDLWGPGTLVTVSS
VL: AIEMTQTPSPVSAAVGGTVSINCQASEDIENYFAWYQQKPGQPPKLLIYDASELASGVPSRFSGSGSGTDFTLTISGVQCDDAATYYCQHADYAASSENTFGGGTEVVVKG
notes: as for B1
B4: SKA0046 (antibody, V domains shown)
VH: QEQLVESGGGLVQPEGSLTLTCTASGFSLSSSNYMWWVRQAPGKGLEWIACIHASSSGDTYYANWAKGRFTISKTSSTTVTLQMTSLTAADTATYFCARGGYIYGDGGYNGVAGFSLWGPGTLVTVSS
VL: DVVMTQTPASVSEPVGGTVTIKCQASETIGNALAWYQQKPGQRPKLLIYGASNLESGVPSRFKGSGSGTEFTLTISDVQCDDAATYYCQSIYYSSSADTFFFPFGGGTEVVVKG
notes: as for B1
B5: SKA0001 (antibody, V domains shown)
VH: QSVEESGGRLVTPGTPLTLTCTVSGFSLSYYAMNWVRQAPGKGLEWIGIIGISGGTYYASWAKGRFTISKSSSTTVDLKMTSPTTEDTATYFCARGGSAWGDLWGQGTLVTVSS
VL: DIVMTQTPSSVSAAVGGTVTINCQASQSISRLLAWYQQKPGQPPKVLMHDASDLASGVPSRFKGSGSGTEYTLTISDLECADAATYYCQSYYWGSSGDIGYPFGGGTEVVVKG
notes: as for B1
B6: SKA0016 (antibody, V domains shown)
VH: QEQLVESGGGLVQPEGSLTLTCTASGFSFSSSDYMCWVRQAPGKGLEWIACIYIGSNGDTFYASWAKGRFTISKTSSTTVTLQMTSLTAADTATYFCARDSRRADDYGTRLDLWGQGTLVTVSS
VL: DIVMTQTPSSVSAAVGGTVTIKCQASQNIYRNLAWYQQKPGQPPKLLIYQASKLESGVPSRFKGSGSGTEFTLTISDLDCDDAASYYCQSISYISSGDTFFWAFGGGTEVVVKG
notes: as for B1
B7: SKA0052 (antibody, V domains shown)
VH: QSLEESGGDLVKSGASLTLTCTASGFSFSSSYYMCWVRQAPGKGLEWIACIYTGSNGDTYYASWANGRFTISKASSTTVTLQMTSLTAADTATYFCARYTYDDDGDYTSFNLWGPGTLVTVSS
VL: ALVMTQTPSSVSADVGGTVTINCQASQNIYRNLAWYQQKPGQRPKLLIYGASNLEPGVPSRFKGSGSGTEFTLTISDLECDDAATYYCQSVGYSGSVDTFFYAFGGGTEVVVKG
notes: as for B1
B8: SKA0171 (antibody, V domains shown)
VH: QSLEESGGGLVQPEGSLTLSCTASGFSFSSSYYMCWVRQAPGKGLEWIACIYGGNSVITYYANWAKGRFTISETSSTTVTLQMTSLTAADTATYFCAREVHYDYLYTTYGYANLWGPGTLVTVSS
VL: AIKMTQTPASVSAVVGGTVTINCQASETIYSGLAWYQQKPGQPPKLLIYDTANLETGVSSRFKGSGSGTEYTLTISDLECDDAATYFCLYAYYSGGSADNAFGGGTEVVVKG
notes: as for B1
B9: SKA0117 (antibody, V domains shown)
VH: QSLEESGGDLVKPEGSLTLTCTASGFSFSSSHYMCWVRQAPGKGLEWIACIYAGSSDNTYYASWAKGRFTISKTSSTTVTLQMTSLTAADTATYFCARDTYGYVGYASAGGFFNLWGPGTLVTVSS
VL: ALVMTQTPASVSAAVGGTVTINCQASHNIYSVLAWYQQKPGQRPRLLIYGASNLESGVPSRFKGSGSGTEYTLTISDLECDDAATYYCQSAYYSSSTGDNAFGGGTEVVVKG
notes: as for B1
B10: SKA0141 (antibody, V domains shown)
VH: QSLEESGGDLVKPGASLTLTCTASGFSFSSSYYMCWVRQAPGKGLEWIACIYAGSSGSTYYASWAKGRFTISKTSSTTVTLQMTSLTAADTATYFCARDGDENMLVGGYFNLWGPGTLVTVSS
VL: B9 VL with A9S, V32N, R45K, S96N, T97A, D99Y
notes: as for B1

The binders below were run against T1, Glm (human, UniProt P01857 1-328 = IgG part) (assay: ELISA, OD405 against dose (ng/mL, log axis 1-100)).
T1 construct: Construct used in the ELISA is not described beyond the constant region; also called G1m
T1 sequence (P01857 1-328 D239E/L241M limits assumed): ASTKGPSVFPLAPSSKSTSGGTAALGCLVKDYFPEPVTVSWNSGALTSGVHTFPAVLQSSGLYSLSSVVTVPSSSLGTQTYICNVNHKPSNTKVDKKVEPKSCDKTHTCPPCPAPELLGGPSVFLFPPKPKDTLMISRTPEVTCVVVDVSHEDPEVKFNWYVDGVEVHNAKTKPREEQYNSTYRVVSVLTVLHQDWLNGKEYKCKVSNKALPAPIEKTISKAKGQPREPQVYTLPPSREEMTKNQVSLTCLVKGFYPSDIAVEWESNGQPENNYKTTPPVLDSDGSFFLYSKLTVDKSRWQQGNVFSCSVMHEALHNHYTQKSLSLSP

Question: Does B1 bind?
Answer: no binding (tested: about 60 ng/mL)

Question: Does B2 bind?
Answer: no binding (tested: about 60 ng/mL)

Question: Does B3 bind?
Answer: no binding (tested: about 60 ng/mL)

Question: Does B4 bind?
Answer: no binding (tested: about 60 ng/mL)

Question: Does B5 bind?
Answer: no binding (tested: about 60 ng/mL)

Question: Does B6 bind?
Answer: no binding (tested: about 60 ng/mL)

These binders were tested against T2, SG115 (human, UniProt P01857 1-328 = IgG part) (assay: ELISA, OD405 against dose (ng/mL, log axis 1-100)).
T2 construct: also called modified IgG heavy chain constant region SG115
T2 sequence (P01857 other isoform, or with tags, fused parts or gaps limits assumed): as the sequence (P01857 1-328 D239E/L241M limits assumed) above, with L118R, G119R, S122K, A210G, A213S, P214S, M311L, N317A, Q321R, S323E counted along it

Question: Does B1 bind?
Answer: binds

Question: Does B2 bind?
Answer: binds

Question: Does B3 bind?
Answer: binds

Question: Does B4 bind?
Answer: binds

Question: Does B5 bind?
Answer: binds

Question: Does B6 bind?
Answer: binds

Each binder was assayed against T3, G4d (human, UniProt P01861 1-325 = IgG part) (assay: ELISA, OD405 against dose (ng/mL, log axis 1-100)).
T3 construct: Construct used in the ELISA is not described beyond the constant region
T3 sequence (P01861 1-325 S108P limits assumed): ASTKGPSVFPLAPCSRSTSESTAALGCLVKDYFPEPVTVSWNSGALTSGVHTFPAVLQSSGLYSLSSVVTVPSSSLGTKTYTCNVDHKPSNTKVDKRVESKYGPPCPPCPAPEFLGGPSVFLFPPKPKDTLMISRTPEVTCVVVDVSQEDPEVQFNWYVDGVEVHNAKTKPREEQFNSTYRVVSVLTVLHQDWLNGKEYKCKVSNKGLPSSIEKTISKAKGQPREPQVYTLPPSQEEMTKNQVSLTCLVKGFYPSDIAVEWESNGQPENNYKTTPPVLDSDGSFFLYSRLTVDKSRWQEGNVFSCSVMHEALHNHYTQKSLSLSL

Question: Does B1 bind?
Answer: no binding (tested: about 60 ng/mL)

Question: Does B2 bind?
Answer: no binding (tested: about 60 ng/mL)

Question: Does B3 bind?
Answer: no binding (tested: about 60 ng/mL)

Question: Does B4 bind?
Answer: no binding (tested: about 60 ng/mL)

Question: Does B5 bind?
Answer: no binding (tested: about 60 ng/mL)

Question: Does B6 bind?
Answer: no binding (tested: about 60 ng/mL)

Each binder was assayed against T4, SG115v1 (human, UniProt P01857 1-328 = IgG part) (assay: ELISA, OD405 against dose (ng/mL, log axis 1-100)).
T4 construct: Carries the CH2 modifications of SG115 (Arg235, Arg236, Lys239, EU); Construct used in the ELISA is not described beyond the constant region; also called modified IgG heavy chain constant region SG115v1
T4 sequence (P01857 other isoform, or with tags, fused parts or gaps limits assumed): as the sequence (P01857 1-328 D239E/L241M limits assumed) above, with L118R, G119R, S122K, A210G, A213S, P214S counted along it

Question: Does B1 bind?
Answer: no binding (tested: about 60 ng/mL)

Question: Does B2 bind?
Answer: no binding (tested: about 60 ng/mL)

Question: Does B3 bind?
Answer: binds

Question: Does B4 bind?
Answer: binds

Question: Does B5 bind?
Answer: no binding (tested: about 60 ng/mL)

Question: Does B6 bind?
Answer: binds

What follows are binders tested against T5, SG115v2 (human, UniProt P01857 1-328 = IgG part) (assay: ELISA, OD405 against dose (ng/mL, log axis 1-100)).
T5 construct: Carries the CH3 modifications of SG115 (Leu428, Ala434, Arg438, Glu440, EU); Construct used in the ELISA is not described beyond the constant region; also called modified IgG heavy chain constant region SG115v2
T5 sequence (P01857 other isoform, or with tags, fused parts or gaps limits assumed): as the sequence (P01857 1-328 D239E/L241M limits assumed) above, with A210G, A213S, P214S, M311L, N317A, Q321R, S323E counted along it

Question: Does B1 bind?
Answer: binds

Question: Does B2 bind?
Answer: binds

Question: Does B3 bind?
Answer: no binding (tested: about 60 ng/mL)

Question: Does B4 bind?
Answer: no binding (tested: about 60 ng/mL)

Question: Does B5 bind?
Answer: binds

Question: Does B6 bind?
Answer: no binding (tested: about 60 ng/mL)

What follows are binders tested against T6, Anti-IL-8 Antibody (assay: SPR (Biacore T200), 25 C, pH 7.4; SKA antibody captured by anti-rabbit IgG, Anti-IL-8 Antibody injected 0-800 nM).
T6 construct: also called anti-human IL-8 antibody; Fc-Mutated Antibody
Method: To confirm the binding ability of Anti Fc-Mutation Antibodies that show selective binding to SG115v1, KD values of Anti Fc-Mutation Antibodies against Anti-IL-8 Antibody at pH 7.4 were determined at 25 degrees C. using Biacore T200 instrument (GE Healthcare). Sequence of Fc region of Anti-IL-8 Antibody has high similarity to that of Anti-hC5 Antibody.
Anti-rabbit IgG (Abbexa) was immobilized onto FC1 and 2 of a CMS sensor chip using an amine coupling kit (GE Healthcare). For the immobilization of anti-rabbit IgG, HBS-EP+, pH7.4 (GE Healthcare) buffer was used as running buffer. After the immobilization, running buffer was changed to Phosphate pH7.4 buffer (50 mM phosphate buffer containing 150 mM NaCl and 0.05 w/v % P-20, pH 7.4). Each Anti Fc-Mutation Antibody was captured onto FC2 of the sensor chip by anti-rabbit IgG. The amount of Anti Fc-Mutation Antibody to be captured was adjusted so that the number of resonance units (RU) was 100. Anti-IL-8 Antibody was injected at 0, 100, 400, and 800 nM at 10 micro L/min. Sensor surface was regenerated after each cycle with 10 mM Glycine-HCl, pH2.0, which was injected at a flow rate of 30 micro L/min. KD values were obtained using Biacore T200 Evaluation software, version 2.0 (GE Healthcare).

T6 sequence (constant, as listed by the source limits assumed): as the sequence (P01857 1-328 D239E/L241M limits assumed) above, with L118R, G119R, A210G, A213S, P214S, M311L, N317A, Y319T, Q321R, S323E counted along it

Question: How did the Kd turn out when B7 was run?
Answer: 47 nM

Question: And the koff?
Answer: 0.00431 s⁻¹

Question: And the kon?
Answer: 91700 M⁻¹ s⁻¹

Question: For B3, which Kd is on record?
Answer: 36.2 nM

Question: And the koff?
Answer: 0.000904 s⁻¹

Question: And the kon?
Answer: 25000 M⁻¹ s⁻¹

Question: With B4 as the binder, how does the Kd read?
Answer: 49.6 nM

Question: And the koff?
Answer: 0.00209 s⁻¹

Question: And the kon?
Answer: 42000 M⁻¹ s⁻¹

Question: For B6, which Kd is on record?
Answer: 60 nM

Question: And the koff?
Answer: 0.00071 s⁻¹

Question: And the kon?
Answer: 11800 M⁻¹ s⁻¹

Target: T1, Glm
Experiment: ELISA, OD405 against dose (ng/mL, log axis 1-100)
Remark: another data set of the same source

Question: Does B7 bind?
Answer: no binding (tested: about 60 ng/mL)

Question: Does B8 bind?
Answer: no binding (tested: about 60 ng/mL)

Question: Does B9 bind?
Answer: no binding (tested: about 60 ng/mL)

Question: Does B10 bind?
Answer: no binding (tested: about 60 ng/mL)

Target: T2, SG115
Experiment: ELISA, OD405 against dose (ng/mL, log axis 1-100)
Remark: another data set of the same source

Question: Does B7 bind?
Answer: binds

Question: Does B8 bind?
Answer: binds

Question: Does B9 bind?
Answer: binds

Question: Does B10 bind?
Answer: binds

Target: T3, G4d
Experiment: ELISA, OD405 against dose (ng/mL, log axis 1-100)
Remark: another data set of the same source

Question: Does B7 bind?
Answer: no binding (tested: about 60 ng/mL)

Question: Does B8 bind?
Answer: no binding (tested: about 60 ng/mL)

Question: Does B9 bind?
Answer: no binding (tested: about 60 ng/mL)

Question: Does B10 bind?
Answer: no binding (tested: about 60 ng/mL)

Target: T4, SG115v1
Experiment: ELISA, OD405 against dose (ng/mL, log axis 1-100)
Remark: another data set of the same source

Question: Does B7 bind?
Answer: binds

Question: Does B8 bind?
Answer: no binding (tested: about 60 ng/mL)

Question: Does B9 bind?
Answer: no binding (tested: about 60 ng/mL)

Question: Does B10 bind?
Answer: no binding (tested: about 60 ng/mL)

Target: T5, SG115v2
Experiment: ELISA, OD405 against dose (ng/mL, log axis 1-100)
Remark: another data set of the same source

Question: Does B7 bind?
Answer: no binding (tested: about 60 ng/mL)

Question: Does B8 bind?
Answer: binds

Question: Does B9 bind?
Answer: binds

Question: Does B10 bind?
Answer: binds
